In test [1] the target is HLA-A*11:01. Description: IEDB peptide-MHC binding, purified MHC/direct/fluorescence; filed as Kd, often an IC50 or EC50 that approximates it; ≥ and ≤ were set here for values at or beyond the usual limits of such assays.
Test [2] concerns the target HLA-A*31:01. Description: IEDB peptide-MHC binding, purified MHC/competitive/fluorescence; filed as Kd, often an IC50 or EC50 that approximates it; ≥ and ≤ were set here for values at or beyond the usual limits of such assays.
For a further test, the target named is HLA-B*15:17. The test is described as above.
The target of test [3] is HLA-B*18:01. The description is as above.
Test [4] has as its target HLA-B*57:01. The test is described as above.
Test [5] deals with HLA-A*03:01. The description is as above.
A further test deals with HLA-B*27:03. The description is as above.
For a further test, the target named is HLA-A*24:03. The description is as above.
The target of the next test is HLA-B*39:01. Described as above.
For a further test, the target named is HLA-A*26:01. The description is as above.
Another test addresses HLA-B*51:01. Described as above.
Test [6] addresses HLA-A*02:01. The test is described as above.
The target in another test is HLA-A*01:01. Description: IEDB peptide-MHC binding, purified MHC/direct/fluorescence; filed as Kd, often an IC50 or EC50 that approximates it; ≥ and ≤ were set here for values at or beyond the usual limits of such assays.
In test [7] the target is HLA-A*29:02. The description is as above.
For test [8], the target named is HLA-B*15:01. Described as above. To be noted: source organism: Homo sapiens.
Test [9] concerns the target HLA-A*03:01. Described as above.
The next test concerns the target HLA-A*69:01. The description is as above.
For test [10], the target named is HLA-A*02:01. Described as above.
Test [11] deals with HLA-B*18:01. The test is described as above. To be noted: source organism: West Nile virus.
The target of test [12] is HLA-B*57:01. The test is described as above. To be noted: source organism: West Nile virus.
A further test has as its target HLA-B*07:02. Described as above. To be noted: source organism: West Nile virus.
For another test, the target named is HLA-B*58:01. The test is described as above.
The next test deals with HLA-B*08:01. The description is as above. To be noted: source organism: West Nile virus.
A further test addresses HLA-B*08:02. The description is as above. To be noted: source organism: West Nile virus strain PTRoxo.
The target of test [13] is HLA-A*31:01. The test is described as above.
The next test concerns the target HLA-B*27:05. The description is as above. To be noted: source organism: West Nile virus.
The next test deals with HLA-B*46:01. Described as above. To be noted: source organism: West Nile virus.
Test [14] concerns the target HLA-B*15:01. Briefly: IEDB peptide-MHC binding, purified MHC/competitive/fluorescence; ≥ and ≤ were set here for values at or beyond the usual limits of such assays.
Another test has as its target HLA-A*02:19. Description: IEDB peptide-MHC binding, purified MHC/direct/fluorescence; filed as Kd, often an IC50 or EC50 that approximates it; ≥ and ≤ were set here for values at or beyond the usual limits of such assays. To be noted: source organism: Salmonella enterica subsp. enterica serovar Typhimurium.
Test [15] addresses HLA-A*29:02. Description: IEDB peptide-MHC binding, purified MHC/competitive/fluorescence; filed as Kd, often an IC50 or EC50 that approximates it; ≥ and ≤ were set here for values at or beyond the usual limits of such assays.
The target in test [16] is HLA-A*11:01. Briefly: IEDB peptide-MHC binding, purified MHC/competitive/fluorescence; ≥ and ≤ were set here for values at or beyond the usual limits of such assays.
Test [17] concerns the target HLA-A*02:01. Described as above.
In another test the target is HLA-B*15:03. Description: IEDB peptide-MHC binding, purified MHC/competitive/radioactivity; filed as Kd, often an IC50 or EC50 that approximates it; ≥ and ≤ were set here for values at or beyond the usual limits of such assays. To be noted: source organism: Vaccinia virus WR.
For the next test, the target named is HLA-A*24:02. Description: IEDB peptide-MHC binding, purified MHC/competitive/fluorescence; ≥ and ≤ were set here for values at or beyond the usual limits of such assays.
The next test deals with HLA-A*30:01. Briefly: IEDB peptide-MHC binding, purified MHC/competitive/fluorescence; filed as Kd, often an IC50 or EC50 that approximates it; ≥ and ≤ were set here for values at or beyond the usual limits of such assays. To be noted: source organism: Nostoc punctiforme PCC 73102.
Setting [18] is: source organism: Yellow fever virus.
Setting [19] is: source organism: Influenza A virus (A/chicken/Viet Nam/DT-015/2004(H5N1)).
[20] abbreviates: source organism: West Nile virus.
[21] abbreviates: source organism: Salmonella enterica subsp. enterica serovar Typhimurium.
The mark [22] stands for this setting: source organism: Vaccinia virus.
Where [23] appears, read: source organism: Vaccinia virus Copenhagen.
Where [24] appears, read: source organism: dengue virus type 1.
Setting [25] is: source organism: Ephydatia fluviatilis.
[26] abbreviates: source organism: Sudan ebolavirus.

A value given as a limit tells only on which side of the number the result lay.

Consider ALNTITNLK, for which the equilibrium dissociation constant (Kd) (commonly the constant that tells how readily two partners part at equilibrium) worked out at 0.0086 µM with HLA-A*11:01 [1] (setting [18]) and 0.0414 µM with HLA-A*31:01 [2] (setting [18]).

In the case of CLVSGLSSL, the Kd in the test with HLA-B*15:17 (source organism: Mus musculus), with HLA-B*18:01 [3] (source organism: Mus musculus), in the test with HLA-B*57:01 [4] (source organism: Mus musculus), in the test with HLA-A*03:01 [5] (source organism: Mus musculus), with HLA-B*27:03 (source organism: Mus musculus) and with HLA-A*24:03 (source organism: Mus musculus) was ≥ 20 µM each time. Further, the dissociation constant Kd with HLA-B*39:01 (source organism: Mus musculus) is ≥ 20 µM; with HLA-A*26:01 (source organism: Mus musculus), ≥ 20 µM; with HLA-B*51:01 (source organism: Mus musculus) it was ≥ 20 µM; in the test with HLA-A*02:01 [6] (source organism: Mus musculus) it was 0.0037 µM.

For the sequence ESSINISGY, the equilibrium dissociation constant (Kd) with HLA-A*01:01 (source organism: Mammarenavirus juninense) was 0.346 µM; with HLA-A*29:02 [7] (source organism: Mammarenavirus machupoense), 0.23 µM.

Turning to ETFNTPAMY, the Kd with HLA-A*01:01 (source organism: Homo sapiens) is 1.27 µM; in the test with HLA-B*15:01 [8], 0.554 µM; with HLA-A*11:01 [1] (source organism: Homo sapiens), ≥ 38.9 µM; with HLA-A*03:01 [9] (source organism: Homo sapiens), 10.5 µM; with HLA-A*69:01 (source organism: Homo sapiens), 0.0596 µM; with HLA-A*29:02 [7] (source organism: Entamoeba histolytica HM-1:IMSS), 0.01 µM. The Kd with HLA-A*02:01 [10] (source organism: Homo sapiens) is ≥ 36.2 µM.

Take GIPLYDAIK: the Kd in the test with HLA-A*11:01 [1] (setting [19]) was 7.78 µM; in the test with HLA-A*03:01 [9] (setting [19]), ≥ 20 µM; with HLA-A*31:01 [2] (source organism: Influenza A virus (A/X-31(H3N2))), ≥ 20 µM.

For the sequence GMSWITQGL, the Kd in the test with HLA-A*01:01 (setting [20]) is ≥ 20 µM; in the test with HLA-B*18:01 [11], ≥ 20 µM; with HLA-B*57:01 [12], ≥ 20 µM; with HLA-A*11:01 [1] (setting [20]), ≥ 20 µM; with HLA-A*03:01 [9] (setting [20]), ≥ 20 µM; in the test with HLA-A*69:01 (setting [20]), 1.33 µM. Also, the Kd with HLA-B*07:02, with HLA-B*58:01 (setting [20]), in the test with HLA-A*29:02 [7] (setting [20]), with HLA-B*08:01, with HLA-B*08:02 and with HLA-A*31:01 [13] (setting [20]) was ≥ 20 µM in each case. Moreover, the Kd with HLA-B*27:05 and with HLA-B*46:01 was ≥ 20 µM throughout.

Regarding GSLFTEQAF, the IC50 (commonly the concentration at which inhibition is half-maximal) with HLA-B*15:01 [14] (source organism: Vaccinia virus WR) worked out at 5.94 µM.

As for GVNACQVGV, the Kd in the test with HLA-A*69:01 (setting [21]) was determined as 0.392 µM; with HLA-B*58:01 (setting [21]) it was 0.392 µM; with HLA-A*31:01 [13] (setting [21]), 10.2 µM; in the test with HLA-A*02:01 [10] (setting [21]), 0.239 µM; with HLA-A*02:19, 0.023 µM.

As for IWWEQYMQY, the Kd with HLA-A*29:02 [15] (source organism: Shigella boydii) was ≤ 0.0001 µM.

As for KMFTFWYMR, the Kd with HLA-A*11:01 [1] (source organism: Fowlpox virus) stood at 0.0063 µM; with HLA-A*03:01 [9] (source organism: Fowlpox virus), 0.387 µM; with HLA-A*31:01 [2] (source organism: Fowlpox virus), 0.00137 µM.

With KQKMFSNNV, the figures for the 50% inhibitory concentration (IC50) in the test with HLA-B*15:01 [14] (setting [22]), with HLA-A*11:01 [16] (setting [22]) and with HLA-A*02:01 [17] (setting [22]) were 44.4 µM, ≥ 116 µM and 7.07 µM, respectively. In the test with HLA-B*15:03, the Kd turned out to be 0.0193 µM.

As for KTFKDESIF, the 50% inhibitory concentration (IC50) was 9.29 µM with HLA-B*15:01 [14] (setting [23]), 61 µM with HLA-A*11:01 [16] (setting [23]), 24.2 µM in the test with HLA-A*24:02 (setting [23]) and 66.8 µM with HLA-A*02:01 [17] (setting [23]).

Consider KVIDIDLER, for which the figures for the equilibrium dissociation constant (Kd) in the test with HLA-A*11:01 [1] (source organism: Mycobacterium tuberculosis) and with HLA-A*31:01 [2] (source organism: Mycobacterium tuberculosis C) were 0.0139 µM and 0.0192 µM, respectively.

In the case of SSMVNGVVR, the Kd in the test with HLA-A*11:01 [1] (setting [24]) worked out at 0.0261 µM; with HLA-A*31:01 [2] (setting [24]), 0.0184 µM.

In the case of TLKPGTMSV, the Kd with HLA-B*15:17 (setting [25]), with HLA-B*18:01 [3] (setting [25]), with HLA-B*57:01 [4] (setting [25]), with HLA-A*03:01 [5] (setting [25]), with HLA-B*27:03 (setting [25]) and with HLA-A*29:02 [15] (setting [25]) was ≥ 20 µM throughout. Also, the equilibrium dissociation constant (Kd) in the test with HLA-A*24:03 (setting [25]) was ≥ 20 µM; with HLA-B*39:01 (setting [25]), ≥ 20 µM; with HLA-A*26:01 (setting [25]), ≥ 20 µM; in the test with HLA-B*51:01 (setting [25]), ≥ 20 µM; with HLA-A*02:01 [6] (setting [25]) it was 0.041 µM.

Turning to VIILFQKAF, the IC50 is ≥ 143 µM with HLA-B*15:01 [14] (setting [26]), 1.61 µM in the test with HLA-A*24:02 (setting [26]) and ≥ 544 µM with HLA-A*02:01 [17] (setting [26]).

Take VLWDTPSPK: the Kd amounted to 0.0045 µM in the test with HLA-A*11:01 [1] (setting [20]) and 0.0339 µM with HLA-A*31:01 [2] (setting [20]).

On to WFSSGLWPF, for which the values for the Kd in the test with HLA-A*30:01 and with HLA-A*24:03 (source organism: Nostoc punctiforme PCC 73102) were ≥ 20 µM and 0.0039 µM, respectively.

The values above are taken from the Immune Epitope Database (IEDB).
